Test results reported in patent US20090208519A1.

Target: native Neospora caninum cyclophilin (NcCyP) in whole-cell tachyzoite lysate (NcAg) (Neospora caninum) (UniProt P84343)
Assay: cell-based or functional assay

UniProt P84343, sequence (P84343 18-178 limits assumed): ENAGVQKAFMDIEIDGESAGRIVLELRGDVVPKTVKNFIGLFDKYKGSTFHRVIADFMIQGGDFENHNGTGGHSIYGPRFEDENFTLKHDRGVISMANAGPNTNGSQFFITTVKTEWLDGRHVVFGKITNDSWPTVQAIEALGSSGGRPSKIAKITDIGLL

## cyclosporin A (CsA) (peptide)
  NcAg-stimulated IFNγ production in mouse splenocytes: 10 to 100 nM
